Laboratory results as given in PMC11649783, “Structural basis of 3′-tRNA maturation by the human mitochondrial RNase Z complex” (The EMBO Journal, 2024).

Biological target: T1, SDR5C1 (human, UniProt Q99714 1-261)
T1 construct: expression construct as previously described (Reinhard et al, 2017); The subcomplex was purified by Ni2+ IMAC and treated with TEV protease; also called 4xSDR5C1
T1 sequence: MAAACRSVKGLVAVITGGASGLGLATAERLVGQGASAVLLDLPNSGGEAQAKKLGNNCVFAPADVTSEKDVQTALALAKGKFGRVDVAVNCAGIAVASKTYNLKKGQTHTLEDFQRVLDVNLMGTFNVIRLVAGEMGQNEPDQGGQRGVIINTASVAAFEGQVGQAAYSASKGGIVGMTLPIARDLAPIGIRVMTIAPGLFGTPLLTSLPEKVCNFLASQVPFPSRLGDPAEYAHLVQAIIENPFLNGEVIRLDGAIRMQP
Test: cryo-EM structure; RNase Z-HS product complex: assembled at 4 °C from 10 μM TRMT10C/SDR5C1, 20 μM ELAC2 and 20 μM mt-tRNA^His-Ser(AGY) precursor with 200 μM SAM in buffer D (20 mM HEPES 7.5, 50 mM NaCl, 1 mM MgCl2, 1 mM DTT), S200 size exclusion, incubated to complete turnover; 2.9 Å
Conditions: both partners purified

B1: TRMT10C (enzyme, human, UniProt Q7L0Y3 40-403, looked up)
chain: MSSKIPAVTYPKNESTPPSEELELDKWKTTMKSSVQEECVSTISSSKDEDPLAATREFIEMWRLLGREVPEHITEEELKTLMECVSNTAKKKYLKYLYTKEKVKKARQIKKEMKAAAREEAKNIKLLETTEEDKQKNFLFLRLWDRNMDIAMGWKGAQAMQFGQPLVFDMAYENYMKRKELQNTVSQLLESEGWNRRNVDPFHIYFCNLKIDGALHRELVKRYQEKWDKLLLTSTEKSHVDLFPKDSIIYLTADSPNVMTTFRHDKVYVIGSFVDKSMQPGTSLAKAKRLNLATECLPLDKYLQWEIGNKNLTLDQMIRILLCLKNNGNWQEALQFVPKRKHTGFLEISQHSQEFINRLKKAKT
notes: TRMT10C, human; expression construct as previously described (Reinhard et al, 2017); The subcomplex was purified by Ni2+ IMAC and treated with TEV protease
stoichiometry N: 2 mt-tRNA/TRMT10C per SDR5C1 tetramer
